B1: MFF (parent)
chain: MAEISRIQYEMEYTEGISQRMRVP

Variants of: B1
Test: protein stability index of a GFP-peptide fusion (GPS, HEK-293T) (PSI 1-6); higher = more stable
Conditions: c terminus: a fixed tail appended
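Note: lentivirally expressed fusions sorted by FACS into six bins by GFP to DsRed ratio, PSI derived from sequencing read proportions per bin multiplied by bin number.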

Variant | protein stability index
S18G | 2.51
S18D | 2.97
S18L | 1.82
S18M | 1.94
S18H | 2.13
S18K | 2.27
S18F | 1.97
S18R | 2.27
S18T | 2.6
S18E | 3.04
S18Y | 1.92
S18I | 1.66
S18V | 1.74
S18P | 2.65
S18Q | 2.62
S18C | 2.41
S18N | 2.98
S18A | 1.56
S18W | 1.89
P24V | 1.84
P24S | 2.33
P24T | 3.42
P24A | 2.16
P24L | 2.16

Variant | protein stability index
P24D | 2.7
P24M | 2.21
P24H | 2.02
P24G | 2.44
P24K | 2.98
P24Q | 2.75
P24Y | 1.85
P24R | 2.87
P24W | 1.32
P24C | 1.93
P24F | 1.54
P24I | 1.91
P24N | 2.56
P24E | 2.74
Y13V | 3.12
Y13E | 3.32
Y13N | 3.45
Y13S | 3.79
Y13Q | 3.35
Y13P | 3.69
Y13G | 3.66
Y13H | 3.26
Y13D | 3.95
Y13M | 2.67

Variant | protein stability index
Y13F | 2.41
Y13A | 2.73
Y13C | 3.22
Y13W | 2.77
Y13R | 2.71
Y13L | 2.62
Y13T | 3.46
Y13K | 2.96
Y13I | 2.33
E12S | 2.42
E12T | 1.86
E12L | 1.74
E12C | 1.98
E12N | 2.4
E12R | 2.31
E12K | 2.64
E12G | 2.26
E12A | 1.82
E12M | 1.84
E12V | 1.76
E12I | 1.28
E12F | 1.34
E12Q | 1.87
E12P | 2.81

Variant | protein stability index
E12W | 2.12
E12H | 2.26
E12Y | 1.76
E12D | 2.53
G16H | 2.02
G16R | 1.9
G16I | 1.62
G16S | 2.2
G16E | 3.12
G16W | 2.04
G16Q | 2.29
G16P | 3.13
G16L | 1.9
G16T | 2.22
G16N | 2.72
G16Y | 1.48
G16C | 2.02
G16M | 1.88
G16V | 2.07
G16A | 2.69
G16F | 1.82
G16K | 2.71
G16D | 3.02
Q19E | 2.54

Variant | protein stability index
Q19S | 2.56
Q19K | 2.44
Q19F | 1.56
Q19I | 1.89
Q19H | 2.34
Q19L | 1.41
Q19P | 2.77
Q19T | 2.66
Q19W | 2.16
Q19R | 2.59
Q19C | 2.41
Q19V | 1.62
Q19N | 3.06
Q19A | 2.47
Q19M | 2.65
Q19Y | 1.81
Q19G | 2.81
Q19D | 3.16
I17T | 3.4
I17M | 2.35
I17D | 3.95
I17L | 2.52
I17R | 3.67
I17Q | 3.76

Variant | protein stability index
I17G | 3.55
I17P | 3.57
I17H | 3.4
I17C | 2.92
I17S | 3.52
I17Y | 2.62
I17F | 1.99
I17K | 3.18
I17E | 3.36
I17A | 3.03
I17N | 3.3
I17V | 2.96
I17W | 2.25
Q8T | 2.38
Q8S | 2.71
Q8H | 2.47
Q8L | 1.6
Q8A | 2.31
Q8R | 2.21
Q8C | 1.9
Q8N | 2.85
Q8M | 1.94
Q8I | 2.52
Q8V | 1.45

Variant | protein stability index
Q8D | 2.85
Q8F | 1.58
Q8K | 2.13
Q8E | 3.02
Q8G | 2.9
Q8P | 3.03
Q8Y | 1.75
Q8W | 1.49
T14H | 2.5
T14P | 2.55
T14D | 4.16
T14G | 2.75
T14K | 3.28
T14N | 3.15
T14I | 1.86
T14E | 3.22
T14S | 2.71
T14Q | 3.08
T14V | 2.56
T14Y | 2.04
T14R | 2.35
T14A | 2.68
T14M | 2.2

From the supplement of paper PMC10567573
